Laboratory results as given in the DeepSol protein solubility set.

test: soluble on expression in E. coli; label from the status in PepcDB or PDB records

Row | Sequence | soluble on expression in E. coli
1 | MSLDDGTGLFTIGQLARRTGLSVRTIRYWSDEGALPPVTRSSGGYRLYDAGSVARLELIRTLRELGLGLDDVREVLAGETTVAEVAATHVTALDAQIRALKVTRAVLSTVARRGSTAEEMTLMNKLARLSAAERRRILEEFADEMFRGLDTADPVIRERMRNTAVDLPDEPTPEQVDAWVELVELLQDPEFRAQMRAAAEFNAADRGHDSPAGASLWFVRRLVQLAADARQRGIAPEAPEAEEVLRELLGEADGAADRAAVLERLEATSNDRVARYRELLAVVKGGGPLPAHREEFGWVVAALRAREGHHHHHH | soluble
2 | MEGFSLNQDRGSMQDALKQYKHGLGTFEQKMPLMGRKFNEFTEQCFAGNSLTEREKQLIALGIAINAQDEYCMIYHTKGCLDQGASEENILEAVSVAAAFGGGAAFSQGVTVVQQCIEEFGNTTH | soluble
3 | MQGDAAEKARLRGERLAARDALTPAERQQKSLSMTAHGVSGIPFAPGTVISGFMPIRSEVDTRPLMEALRARDGRLVLPVVLDQETIVFRVFEADTPLVKTGFGTTGPGEDAEVLDPHILLVPLSVFDGEGQRIGYGAGHYDRAIARLHAKGRQPVLIGIAFDCQEVASVPAEPHDVALHAVLTESGLRWFSAQRLEHHHHHH | not soluble
4 | MSLSKMEEILVIGVNTRPVVESAFRLGYRVYSAGYYCTADFKHYTERRCILRERSGESCGRFHENFSQEKLLEAASDFIERADGIIPLTGAPPLPGEKVLGNSRVDHVEDKYRLYRRIRNSYPTPETHLISDPAEAMEIVAAGEKKYIAKPVSGAGGFGVTEFREGDGEFLLQEYIEGVPVSASVLSTGEDAITVLTSRQIIDRGVPGFEGQFVYAGNMTPGPSGEIEDLASDLILDLSLRGSNGVDLIMRDSELYVIEVNPRIQGTFECAEASLGINMVDAHIRACMGELIEKPDPVSYAVKRILYAPARCRVGEIKTMGVHDLPVPGTIIEEGEPLLTVLASHNSMEAAENLASNICSRVKKELHYLRCPPPRPQGVEGHHHHHH | not soluble
5 | MGSDKIHHHHHHMDPLSSSDPARLASEQRRLRLQVLGLNTVEAEATFDRIARLAASFTQSPLAMVNFINDERQMFRGMYVPSGSPDDKVSPESGGIAFDLSNLSREAPGDYGFCPHVVAQGSQLALDDVFDYPRFKGNPLVNDLGVRSYLGTPLRDNTGMILGTVCVADMKPRTWDRGLREGMQELTETLLSDFKLRDSLLAQQQELFAVFDGAPFPIMLTEGPDHLLRYANGKQGSAFGLVPQFSPGRHVLPGLEAIGVFGAMDDAFHTGQAATLARASIQTYDSHTLQDFNFLCTPVRTSPAAPISGVLTVAMNTTGQDFAGSEQRAFAANVQERFERLGAGGLPGGMPGQRAESAGYRG | not soluble
6 | MAHHHHHHMTAKSPCLDILPFIFREEQISNRIQTFPTETMKKAYLELKGYFEQYKIYAEKLINFSGSMNDENQRKEKLIIKLRCEYYAVIFSQASKLLHEYINFRNRLILELAINVNGLINSIHPNIIQRLNEDEQKELQKYCENIRSERTRSKLQNKFTVCFLNDLIIEDLNYEGVQKDMKGRNVFYSAGLKVSVFEDKALDLQKCEWAKILRD | not soluble
7 | MSSGSRPSSGGGGGGGGASGGAGGGAPGGGGGGIRGFFSKLRKPSDQPNGNQVQVGTRTFEAHELQKLIPQLEEAISRKDAQLRQQQTIVEGHIKRISELEGEVTTLQRECDKLRSVLEQKAQSAASPGGQPPSPSPRTDQLGNDLQQKAVLPADGVQRAKKIAVSAEPTNFENKPATLQHYNKTVGAKQMIRDAVQKNDFLKQLAKEQIIELVNCMYEMRARAGQWVIQEGEPGDRLFVVAEGELQVSREGALLGKMRAGTVMGELAILYNCTRTASVQALTDVQLWVLDRSVFQMITQRLGMERHSQLMNFLTKVSIFQNLSEDRISKMADVMDQDYYDGGHYIIRQGEKGDAFFVINSGQVKVTQQIEGETEPREIRVLNQGDFFGERALLGEEVRTANIIAQAPGVEVLTLDRESFGKLIGDLESLKKDYGDKERLAQVVREPPSPVKIVDDFREEFAQVTLKNVKRLATLGVGGFGRVELVCVNGDKAKTFALKALKKKHIVDTRQQEHIFAERNIMMETSTDWIVKLYKTFRDQKFVYMLLEVCLGGELWTTLRDRGHFDDYTARFYVACVLEGLEYLHRKNIVYRDLKPENCLLANTGYLKLVDFGFAKKLASGRKTWTFCGTPEYVSPEIILNKGHDQAADYWALGIYICELMLGRPPFQASDPMKTYTLILKGVDALEIPNRRIGKTATALVKKLCRDNPGERLGSGSGGVNDIRKHRWFMGFDWEGLRSRTLKPPILPKVSNPADVTNFDNYPPDNDVPPDEFSGWDEGF | not soluble
8 | MRPDVAFALPALAGGGVERVYLDLAGAMVKEGLRVDFVLARAEGPLLAQLPQGVRLWDLGVPRRLPLLRAYTPLGVYLAQARPRVVLPDWDYLDWVPLQAAWRSRTPFLWVLHNAPAYLKDVPNPVKRHTALWAARQTLKRAVNHPLGRVGAVSRGVAQAFARFGGVPEERICVLPNPIHVDRVRRLSHENVPLPATPYFLALGRLHPQKGFSLLLEAFSIFAKHHPDVHLLILGEGPERPRLEKLAHTLGLTSRVAFLGFVVNPYPYLRGAKALVITSRYEGFSMVALEALALRVPVVAVESEGGLLEALGDGRFGIVTPRSPQALAHAMERVLSDGFAWDETALKDHLNQYSPEAALRSYMSVLEEIWR | soluble
9 | MGSDKIHHHHHHMAINTTPLSESSKNNPDKQNNFVIALAGNPNVGKSTVFNRLTGLKQHTGNWPGKTVIKAEGTFSHRNRHYTLVDLPGTYSLHASSSDEEVARNFICFSRPDITLVVCDATCLERNLNLVLQILEITDRVLVCVNLLDEAERKGIQVDIAMLARQLGIPVVGTAARSGRGLESLKNVLDDMLAGKIAIQPRQLVYDPELEASINRIEKRLAPYLPAWINSRWVTLRVLERDFSILEHISNHKNNDFPRQVLKEEVALCLR | not soluble
10 | MGSDKIHHHHHHMKVLIVGGSGGIGQAMVKQVQETYPDATVHATYRHHLPNDRQNNIQWHALDVTNEAEIKQLSEQLTELDWLINCVGILHTQDKGPEKSLQSLDIDFFQHNLTLNTLPSVMLAKHFCHALKQSDSARFAVISAKVGSITDNRLGGWYSYRASKAALNMFLKTLAIEWQRNMKHCVVLSLHPGTTDTPLSQPFQQSVPKGKLFTPEYVANCLLPIIANATPAQTGCFFAYDGTELPW | not soluble
11 | MGKKKNKKTEVQQPDPMRKNWIMENMDSGVIYLLESWLKAKSQETGKEISDIFANAVEFNIVLKDWGKEKLEETNTEYQNQQRKLRKTYIEYYDREMK | soluble
12 | MIEQIGADSKSAENKQERKLYIETYGCQMNVADSEVVASVMQMDGYNLTDNVDEADTILVNTCSVRDNAEQKVLNRLAYYHSLRKKRRASSRLVIGVLGCMAERVKEELIREHHVDVVAGPDSYLDLPNLVGAAEQGEKAINVELSTQETYKDVMPLKMGGVHINGFVSIMRGCNNFCSYCIVPYTRGRERSREIESILNEVRDLKAKNFREVTLLGQNVNSYRYEQNGRIIRFPDLLAAVAEAVPDMRIRFTSPHPKDMDDEAIAVMARYRNICNHIHLPAQSGSDKMLRVMKRGYTRRWYLDRVAAIRRAIPDCAISSDLFCGFHSETEEDFEATLSLMEEVRYDSAFMFKYSERPGTYAARHLADDVPEEVKLSRLDRMIALQNRLSEESNKRDIGKTFEVLIEGFSKRSREQLFGRTQQNKVVIFDKNGHRVGQYIYVRIKDASSATLFGEVVETPTSE | not soluble
13 | MKTIRTEEAVGLPLSHDITRIDYGKTKEVCFKKGHIVVQEDIPILLSLGKKHLFVSLDPAEIHEEEAATFLYNLLTDDSCQPSEVHEGKIVAKASTRGLLKVNREKLIALNEIEGLALSTKVTNIEVQKDEKVAAFRVIPLTISKSQLEKARQLSTSEPLISVKPFKKIRVGIVTTGSEVYTGLVEDAFYPVLKAKFSAYPLVTIVKQEIVDDQPQKITVAIKKMLAQGVDLIVCTGGMSVDPDDLTPLAIKQTGAEIVTHGTPVLPGSMFLLAYKGEQTIIGLPGGVLFSEKTVFDLLLPRLMAKEVIKKSEIIDLSYGGYL | not soluble
14 | MGEIESYCNKELGPLPTKAPTLSKNVLDLFSLKGKVASVTGSSGGIGWAVAEAYAQAGADVAIWYNSHPADEKAEHLQKTYGVHSKAYKCNISDPKSVEETISQQEKDFGTIDVFVANAGVTWTQGPEIDVDNYDSWNKIISVDLNGVYYCSHNIGKIFKKNGKGSLIITSSISGKIVNIPQLQAPYNTAKAACTHLAKSLAIEWAPFARVNTISPGYIDTDITDFASKDMKAKWWQLTPLGREGLTQELVGGYLYLASNASTFTTGSDVVIDGGYTCP | soluble
